Laboratory results taken from patent US20240043483A1, “TAU BIOSENSOR CELL LINES” (THE BOARD OF REGENTS OF THE UNIVERSITY OF TEXAS SYSTEM, priority 2020, published 2024).

How the values were obtained:
[1] = target: tau RD(P301S)-mClover3 fusion (tau segment 246 to 378 with the P301S mutation, linker …, mClover3) (UniProt P10636); assay: cell-based or functional assay
[2] = target: tau RD(P301S)-mCerulean3 fusion (tau segment 246 to 378 with the P301S mutation, linker …, mCerulean3) (UniProt P10636); assay: cell-based or functional assay
tau RD(P301S)-mCerulean3 fusion (tau segment 246 to 378 with the P301S mutation, linker …, mCerulean3), sequence (P10636 other isoform, or with tags, fused parts or gaps P301S P301S P301S P301S): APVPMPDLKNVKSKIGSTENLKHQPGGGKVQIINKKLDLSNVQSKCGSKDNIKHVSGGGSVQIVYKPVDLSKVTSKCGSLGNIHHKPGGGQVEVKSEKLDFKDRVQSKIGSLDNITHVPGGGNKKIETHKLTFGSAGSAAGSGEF

tau RD(P301S)-mClover3 fusion (tau segment 246 to 378 with the P301S mutation, linker …, mClover3), sequence (P10636 other isoform, or with tags, fused parts or gaps P301S P301S P301S P301S): as above

seeding activity (FRET positivity) after TauA immunopurification of fibrils spiked into 1 ml control CSF [1]: 100 attomolar | seeding activity (FRET positivity) after TauA immunopurification of fibrils spiked into 1 ml control CSF [2]: 100 attomolar
Substance: recombinant tau fibrils made of wild-type full-length (2N4R) tau (from UniProt P10636 2-441)
